TMT signal-to-noise ratio data for one substance are collected here from patent US20210063414A1, “METHODS FOR PREVENTING AND/OR TREATING BONE LOSS CONDITIONS BY MODULATING IRISIN” (Dana-Farber Cancer Institute, Inc., priority 2018, published 2021).

In test [1] the target is T1, MLO-Y4 cell surface proteins (Mus musculus, UniProt P97360).
T1 construct: endogenous in cells; host or cells: MLO-Y4
T1 sequence (P97360 1-485): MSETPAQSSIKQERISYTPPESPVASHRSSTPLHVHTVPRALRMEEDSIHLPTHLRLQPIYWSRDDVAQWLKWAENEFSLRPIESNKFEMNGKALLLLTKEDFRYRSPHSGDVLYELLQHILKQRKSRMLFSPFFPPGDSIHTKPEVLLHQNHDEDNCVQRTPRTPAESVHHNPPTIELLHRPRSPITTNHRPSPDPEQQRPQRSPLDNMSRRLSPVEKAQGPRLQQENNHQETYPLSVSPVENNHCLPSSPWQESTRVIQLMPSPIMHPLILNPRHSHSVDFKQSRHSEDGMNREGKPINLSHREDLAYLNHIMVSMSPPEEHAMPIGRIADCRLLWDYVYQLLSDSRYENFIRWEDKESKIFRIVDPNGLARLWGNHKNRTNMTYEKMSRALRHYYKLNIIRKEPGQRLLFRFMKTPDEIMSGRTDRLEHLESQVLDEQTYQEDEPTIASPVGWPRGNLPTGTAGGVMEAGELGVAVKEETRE
Briefly: Crosslinking/co-immunoprecipitation/mass spectrometry (TMT quantitative proteomics) to identify irisin receptors. Format: binding. Particulars: co-precipitated protein Etv6 (ETV6_MOUSE). The procedure, abridged:
(§1)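 Mouse MLO-Y4 cells were switched to serum-free FreeStyle medium for 4 h, chilled, then exposed to 10 nM His-tagged irisin (or adipsin as control) for 20 min. Cells were crosslinked with 1.5 mM DTSSP (30 min, ice), and bound proteins were pulled down on Ni-NTA and eluted with 250 mM imidazole. Eluates were separated by SDS-PAGE, trypsin-digested in gel, TMT 6-plex labelled and quantified by MS3-based LC-MS/MS on an Orbitrap Fusion Lumos.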

Test [2] deals with T2, MLO-Y4 cell surface proteins (Mus musculus, UniProt Q8BJQ9).
T2 construct: endogenous in cells; host or cells: MLO-Y4
T2 sequence (Q8BJQ9 1-530): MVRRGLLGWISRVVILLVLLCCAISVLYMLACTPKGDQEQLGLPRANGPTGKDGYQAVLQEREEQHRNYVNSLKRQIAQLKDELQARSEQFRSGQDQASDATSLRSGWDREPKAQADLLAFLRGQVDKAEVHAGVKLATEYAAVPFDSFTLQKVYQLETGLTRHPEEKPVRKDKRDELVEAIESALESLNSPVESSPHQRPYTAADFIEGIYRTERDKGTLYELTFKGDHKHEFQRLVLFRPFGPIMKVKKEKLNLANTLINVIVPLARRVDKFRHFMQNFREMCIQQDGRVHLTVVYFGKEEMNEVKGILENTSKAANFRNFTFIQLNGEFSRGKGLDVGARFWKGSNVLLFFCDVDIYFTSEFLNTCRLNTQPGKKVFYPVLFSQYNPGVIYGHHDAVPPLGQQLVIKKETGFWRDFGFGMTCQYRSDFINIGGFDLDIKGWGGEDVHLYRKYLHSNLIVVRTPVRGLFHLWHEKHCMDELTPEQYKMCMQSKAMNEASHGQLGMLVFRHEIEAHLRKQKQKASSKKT
Described as above. Conditions: co-precipitated protein Csgalnact1 (CGAT1_MOUSE). Format: binding. The procedure, abridged:
as §1

Consider adipsin, for which the TMT signal-to-noise ratio in test [1] amounted to 137.108; in test [2], 2426.62.
